Assay results taken from US6649364.

Tests used:
[1] = target: DNase I (Sigma, St. Louis, Mo.)
[2] = target: α-actin purified from rabbit skeletal muscle, globular (G-actin) form, P68135

B1: highly purified human recombinant ICE (p20/p10) (Merck) (protein)
chain 1: NPAMPTSSGSEGNVKLCSLEEAQRIWKQKSAEIYPIMDKSSRTRLALIICNEEFDSIPRRTGAEVDITGMTMLLQNLGYSVDVKKNLTASDMTTELEAFAHRPEHKTSDSTFLVFMSHGIREGICGKKHSEQVPDILQLNAIFNMLNTKNCPSLKDKPKVIIIQACRGDSPGVVWFKD
chain 2: AIKKAHIEKDFIAFCSSTPDNVSWRHPTMGSVFIGRLIEHMQEYACSCDVEEIFRKVRFSFEQPDGRAQMPTTERVTLTRCFYLFPGH
What does the source list for B1?
cleavage of DNase I and its endonuclease activity [1]: Control incubations without actin demonstrated that ICE neither cleaved DNase I nor affected its endonuclease activity; cleavage of purified actin (SDS-polyacrylamide gel electrophoresis) [2]: In the presence of ICE, actin was cleaved, resulting in a disappearance of the 42 kd band, and the appearance of bands at approximately 41 kd, 30 kd, and 14 kd
